Measurements taken from publication PMC4508888.

B1: EGFP-Myo1b (natural protein)
chain: MAKKEVKSSLLDNMIGVGDTVLLEPLNEETFIDNLKKRFDHNEIYTYIGSVVISVNPYRSLPIYSPEKVEDYRNRNFYELSPHIFALSDEAYRSLRDQDKDQCILITGESGAGKTEASKLVMSYVAAVCGKGAEVNQVKEQLLQSTPVLEAFGNAKTVRNDNSSRFGKYMDIEFDFKGDPLGGVISNYLLEKSRVVKQPRGERNFHVFYQLLSGASEELLHKLKLERDFSRYNYLSLDSAKVNGVDDAANFRTVRNAMQIVGFSDPEAESVLEVVAAVLKLGNIEFKPESRMNGLDESKIKDKNELKEICELTSIDQVVLERAFSFRTVEAKQEKVSTTLNVAQAYYARDALAKNLYSRLFSWLVNRINESIKAQTKVRKKVMGVLDIYGFEIFEDNSFEQFIINYCNEKLQQIFIELTLKEEQEEYIREDIEWTHIDYFNNAIICDLIENNTNGILAMLDEECLRPGTVTDETFLEKLNQVCATHQHFESRMSKCSRFLNDTTLPHSCFRIQHYAGKVLYQVEGFVDKNNDLLYRDLSQAMWKAGHALIKSLFPEGNPAKVNLKRPPTAGSQFKASVATLMKNLQTKNPNYIRCIKPNDKKAAHIFSESLVCHQIRYLGLLENVRVRRAGYAFRQAYEPCLERYKMLCKQTWPHWKGPARSGVEVLFNELEIPVEEYSFGRSKIFIRNPRTLFQLEDLRKQRLEDLATLIQKIYRGWKCRTHFLLMKRSQVVIAAWYRRYAQQKRYQQIKSSALVIQSYIRGWKARKILRELKHQKRCKEAATTIAAYWHGTQARKERRRLKDEARNKHAIAVIWAFWLGSKARRELKRLKEEARRKHAVAVIWAYWLGLKVRREYRKFFRANAGKKIYEFTLQRIVQKYLLEMKNKMPSLSPIDKNWPSRPYLFLDSTHKELKRIFHLWRCKKYRDQFTDQQKLIYEEKLEASELFKDKKALYPSSVGQPFQGAYLEINKNPKYKKLKDAIEEKIIIAEVVNKINRANGKSTSRIFLLTNNNLLLADQKSGQIKSEVPLVDVTKVSMSSQNDGFFAVHLKEGSEAASKGDFLFSSDHLIEMATKLYRTTLSQTKQKLNIEISDEFLVQFRQDKVCVKFIQGNQKNGSVPTCKRKNNRLLEVAVP

Assays:
Experiment in all cases: co-IP
EGFP-Myo1b (rat) = EGFP-Myo1b (rat) (UniProt Q05096)
EGFP-Myo1b-Tail (rat) = target: EGFP-Myo1b-Tail (rat)
EGFP-Myo1b motor (rat) = target: EGFP-Myo1b motor (rat)
Flag-EphB2-KD = Flag-EphB2-KD (UniProt P54763)

| Molecule | percent of Flag-EphB2 co-precipitated with EGFP-Myo1b after genistein treatment (EGFP-Myo1b (rat)) [%] | fold of Flag-EphB2 pulled down against EGFP-Myo1b (EGFP-Myo1b-Tail (rat)) [fold] | percent of Flag-EphB2 pulled down against EGFP-Myo1b (EGFP-Myo1b motor (rat)) [%] | percent of EGFP-Myo1b co-precipitated against Flag-EphB2 (Flag-EphB2-KD) [%] |
| --- | --- | --- | --- | --- |
| Flag-EphB2 (from UniProt P54763 19-986) (receptor) | 29 | > 2 | 50 |  |
| B1 |  |  |  | 16 |
